Experimental data reported in publication PMC7910607, “Structure-guided insights into heterocyclic ring-cleavage catalysis of the non-heme Fe (II) dioxygenase NicX” (Nature Communications, 2021).

Columns and labels:
[1] = target: T1, NicX (2,5-dihydroxypyridine dioxygenase) (Pseudomonas putida, UniProt Q88FY1); test: X-ray crystal structure, […] Å, soaked crystals; format: binding; conditions: soaked with 5 mM Fe2+, then 5 mM DHP and 20 mM sodium dithionite
T1 construct: full-length WT in pET-24a, C-terminal 6xHis tag, E. coli BL21(DE3), ~39 kDa, homohexamer, mononuclear Fe(II); domains residues 2-151 and 152-350
T1 sequence (Q88FY1 1-350): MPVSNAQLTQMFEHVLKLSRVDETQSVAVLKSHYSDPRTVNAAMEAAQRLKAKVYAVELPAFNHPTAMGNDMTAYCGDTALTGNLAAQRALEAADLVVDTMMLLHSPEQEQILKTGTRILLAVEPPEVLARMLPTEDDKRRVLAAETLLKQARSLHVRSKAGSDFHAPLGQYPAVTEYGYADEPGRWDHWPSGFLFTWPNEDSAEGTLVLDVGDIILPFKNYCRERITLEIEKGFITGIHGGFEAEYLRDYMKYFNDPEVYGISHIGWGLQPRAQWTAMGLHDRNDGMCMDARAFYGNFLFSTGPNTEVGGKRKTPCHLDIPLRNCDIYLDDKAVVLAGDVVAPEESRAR

[2] = system: T2, Oc1ccc(O)nc1; test: purified protein; format: biochemical, Pseudomonas putida; conditions: 20 mM Tris-HCl pH 8.0, 50 µM FeCl2, 25 °C, O2 (air)
T2 construct: full-length WT in pET-24a, C-terminal 6xHis tag, E. coli BL21(DE3), ~39 kDa, homohexamer, mononuclear Fe(II); domains residues 2-151 and 152-350

[3] = substrate: Oc1ccc(O)nc1; test: purified protein; format: biochemical, Pseudomonas putida; conditions: 20 mM Tris-HCl pH 8.0, 50 µM FeCl2, 25 °C, O2 (air)
[4] = target: the molecule itself; test: crystal structure; hanging-drop vapor diffusion at 20 °C, 20% PEG 3350, pH 7.0; six molecules in the asymmetric unit; also crystals soaked with Fe2+ and DHP

Oc1ccc(O)nc1 [DHP, 2,5-dihydroxypyridine]
X-ray crystal structure, 2.20 Å, soaked crystals ([1]; active site of subunits C, D, E, F): four subunits (C, D, E, and F) of the six constituent molecules

O=CNC(=O)/C=C\C(=O)O [NFM, N-formylmaleamic acid]
X-ray crystal structure, 2.20 Å, soaked crystals ([1]; active site of subunits A and B, formed in crystal from DHP): the other subunits (A and B) contain the product NFM

NicX (2,5-dihydroxypyridine dioxygenase) (Pseudomonas putida KT2440; E308A)
Km [2]: 95.85 ± 3.68 µM

NicX (2,5-dihydroxypyridine dioxygenase) (Pseudomonas putida KT2440; V175F)
Km [2]: 117.9 ± 3.68 µM

B1: NicX (2,5-dihydroxypyridine dioxygenase) (Pseudomonas putida KT2440) (protein)
chain: T1 sequence (Q88FY1 1-350)
notes: full-length WT in pET-24a, C-terminal 6xHis tag, E. coli BL21(DE3), ~39 kDa, homohexamer, mononuclear Fe(II); domains residues 2-151 and 152-350
Km [3]: 94.9 ± 3.84 µM

B2: 2,5-Dihydroxypyridine dioxygenase (NicX) from Pseudomonas putida KT2440 (enzyme, UniProt Q88FY1 1-350, looked up)
chain: T1 sequence (Q88FY1 1-350)
notes: NicX, 2,5-dihydroxypyridine dioxygenase of Pseudomonas putida KT2440, full-length wild type; residues 2-350 described in the structure; Cloned into pET-24a between NdeI and HindIII with a C-terminal His tag; in PDB 7CN3 the crystals were soaked with Fe2+ and DHP (subunits C-F hold DHP, A and B hold NFM); also called WT NicX; wild type NicX; source: E. coli BL21(DE3), purified (Ni-NTA, Superdex200 …)
stoichiometry N [4]: 6

B3: SeMet-substituted NicX (enzyme, Pseudomonas putida KT2440, UniProt Q88FY1 1-350, looked up)
chain: T1 sequence (Q88FY1 1-350)
modifications: selenomethionine (SeMet) substituted
notes: NicX, 2,5-dihydroxypyridine dioxygenase of Pseudomonas putida KT2440, selenomethionine-substituted form of the full-length construct; Same construct as m1, expressed with selenomethionine for SAD phasing; also called SeMet-NicX; Se-NicX; source: E. coli B834(DE3) in M9 minimal media, purified (Ni-NTA, Superdex200 gel filtration)
binding result [4]: binds
